{"source": "paper PMC3501490", "about": "(PLoS ONE, 2012)", "molecular_target": "PI3K p85 SH2 domains", "test": "SPR (BIAcore 3000), PI3K p85 SH2 domains", "type": "binding", "conditions": "HBS pH 7.4, 37°C, n = 3", "protocol": "Experiments were conducted on a BIAcore™ 3000 in HBS buffer (0.01 M HEPES, pH 7.4, containing 0.15 M NaCl, 3 mM EDTA, and 0.005% v/v P-20, GE Life Sciences, Amersham, UK). Streptavidin was coupled to a research grade CM5 chip (GE Life Sciences, Amersham, UK) as previously described, [13]. Protein-peptide interactions were carried out a rate of 10 µl/min at a constant temperature of 37°C to more accurately reflect physiological conditions. Biotinylated peptides were bound to the streptavidin-coated CM5 chips at 37°C to between 25–50 RU [14]. Purified monomeric SH2 domains were passed over the immobilised peptides at a range of concentrations. Anti-phosphotyrosine monoclonal antibody (Sigma, Poole, U.K.) was passed over the chip to saturation at the end of each experiment to verify peptide coverage on the chip. Binding affinities for the single ITIM/ITSM peptides were determined by plotting equilibrium binding measurements (RU) against SH2 domain protein concentration (Origin 8, OriginLab, MA, USA). KD was defined as the concentration of SH2 protein that gave half maximal binding to the peptide. For the 60-mer peptides, SH2 domains were passed over the chip surface at 50 µl/min. KD was determined as Koff/Kon, which were determined using both GraphPad Prism 5.0 (GraphPad, La Jolla, CA, USA) and BIAevaluation Software (GE Life Sciences, Amersham,UK). […]"}
{"molecule": "G6B-b: inhibitory platelet receptor; affinities measured with its dual phosphopeptide (protein, UniProt O95866 18-241, looked up) Megakaryocyte and platelet …: NPGASLDGRPGDRVNLSCGGVSHPIRWVWAPSFPACKGLSKGRRPILWASSSGTPTVPPLQPFVGRLRSLDSGIRRLELLLSAGDSGTFFCKGRHEDESRTVLHVLGDRTYCKAPGPTHGSVYPQLLIPLLGAGLVLGLGALGLVWWLHRRLPPQPIRPLPRFAPLVKTEPQRPVKEEEPKIPGDLDQEPSLLYADLDHLALSRPRRLSTADPADASTIYAVVV", "values": [{"measurement": "Kd", "result": "~1000", "unit": "nM"}]}
